Laboratory results reported in patent US20160297884A1.

Assays:
[1] = molecular target: B-cell maturation antigen (BCMA) (human) (UniProt Q02223); assay: cell-based or functional assay
[2] = molecular target: BCMA expressed on MM1S cells (human) (UniProt Q02223); assay: cell-based or functional assay
Chain of BCMA expressed on MM1S cells (human) (Q02223 whole entry): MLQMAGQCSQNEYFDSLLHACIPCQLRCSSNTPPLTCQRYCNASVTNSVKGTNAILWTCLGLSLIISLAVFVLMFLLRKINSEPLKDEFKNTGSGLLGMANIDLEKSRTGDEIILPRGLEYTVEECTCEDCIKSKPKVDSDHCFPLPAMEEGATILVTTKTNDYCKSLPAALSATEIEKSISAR

Chain of B-cell maturation antigen (BCMA) (human) (Q02223 whole entry): as above

Row | Binder | % CD107a+ (in CD8+) (degranulation, MM1S cells, Donor 3) [1] [%] | MFI CD107a+ (degranulation, MM1S cells, Donor 3) [1] [MFI] | % CD107a+ (in CD8+) (degranulation, MM1S cells, Donor 2) [1] [%] | MFI CD107a+ (degranulation, MM1S cells, Donor 2) [1] [MFI] | also measured
1 | PC1C12-V1 (protein) EVQLLESGGGLVQPGGSLRLSCAASGFTFSSYPMSWVRQAPGKGLEWVSAIGGSGGWSYYADSVKGRFTISRDNSKNTLYLQMNSLRAEDTAVYYCARYWPMDSWGQGTLVTVSSGGGGSGGGGSGGGGSEIVLTQSPGTLSLSPGERATLSCWLSQSVSSTYLAWYQQKPGQAPRLLIYDASSRAPGIPDRFSGSGSGTDFTLTISRLEPEDFAVYYCQQYSEWPLTFGQGTKVEIKGLAVSTISSFFPPGYQIYIWAPLAGTCGVLLLSLVITLYCKRGRKKLLYIFKQPFMRPVQTTQEEDGCSCRFPEEEEGGCELRVKFSRSADAPAYQQGQNQLYNELNLGRREEYDVLDKRRGRDPEMGGKPRRKNPQEGLYNELQKDKMAEAYSEIGMKGERRRGKGHDGLYQGLSTATKDTYDALHMQALPPR | 68.2 | 1960 | – | – | –
2 | COM22-V1 (protein) EVQLLESGGGLVQPGGSLRLSCAASGFTFSSYAMNWVRQAPGKGLEWVSAISDSGGSRWYADSVKGRFTISRDNSKNTLYLQMNSLRAEDTAVYYCTRYWPMDIWGQGTLVTVSSGGGGSGGGGSGGGGSEIVLTQSPGTLSLSPGERATLSCRASVRVSSTYLAWYQQKPGQAPRLLMYDASIRATGIPDRFSGSGSGTDFTLTISRLEPEDFAVYYCQQYMKWPLTFGQGTKVEIKGLAVSTISSFFPPGYQIYIWAPLAGTCGVLLLSLVITLYCKRGRKKLLYIFKQPFMRPVQTTQEEDGCSCRFPEEEEGGCELRVKFSRSADAPAYQQGQNQLYNELNLGRREEYDVLDKRRGRDPEMGGKPRRKNPQEGLYNELQKDKMAEAYSEIGMKGERRRGKGHDGLYQGLSTATKDTYDALHMQALPPR | 76.1 | 2220 | – | – | –
3 | P6AP-V1 (protein) EVQLLESGGGLVQPGGSLRLSCAASGFTFGSYAMTWVRQAPGKGLEWVSAISGSGGNTFYADSVKGRFTISRDNSKNTLYLQMNSLRAEDTAVYYCARVSPIAAPMDYWGQGTLVTVSSGGGGSGGGGSGGGGSEIVLTQSPGTLSLSPGERATLSCRASQLGSFYLAWYQQKPGQAPRLLIYGASSRATGIPDRFSGSGSGTDFTLTISRLEPEDFAVYYCQHYNYPPSFTFGQGTKVEIKGLAVSTISSFFPPGYQIYIWAPLAGTCGVLLLSLVITLYCKRGRKKLLYIFKQPFMRPVQTTQEEDGCSCRFPEEEEGGCELRVKFSRSADAPAYQQGQNQLYNELNLGRREEYDVLDKRRGRDPEMGGKPRRKNPQEGLYNELQKDKMAEAYSEIGMKGERRRGKGHDGLYQGLSTATKDTYDALHMQALPPR | – | – | – | – | % CD107a+ (in CD8+) (degranulation, Donor 1, co-culture with MM1S) [2]: 46.4%; MFI CD107a+ (degranulation, CD8+ T cells, Donor 1, co-culture with MM1S) [2]: 1850 MFI
4 | P5A-V1 (protein) EVQLLESGGGLVQPGGSLRLSCAASGFTFSSYAMNWVRQAPGKGLEWVSAISDSGGSTYYADSVKGRFTISRDNSKNTLYLQMNSLRAEDTAVYYCARYWPMDIWGQGTLVTVSSGGGGSGGGGSGGGGSEIVLTQSPGTLSLSPGERATLSCRASQSVSSSYLAWYQQKPGQAPRLLMYDASIRATGIPDRFSGSGSGTDFTLTISRLEPEDFAVYYCQQYGSWPLTFGQGTKVEIKGLAVSTISSFFPPGYQIYIWAPLAGTCGVLLLSLVITLYCKRGRKKLLYIFKQPFMRPVQTTQEEDGCSCRFPEEEEGGCELRVKFSRSADAPAYQQGQNQLYNELNLGRREEYDVLDKRRGRDPEMGGKPRRKNPQEGLYNELQKDKMAEAYSEIGMKGERRRGKGHDGLYQGLSTATKDTYDALHMQALPPR | – | – | 77.6 | 2670 | –
5 | P5AC1-V1 (protein) EVQLLESGGGLVQPGGSLRLSCAASGFTFSSYAMNWVRQAPGKGLEWVSAILSSGGSTYYADSVKGRFTISRDNSKNTLYLQMNSLRAEDTAVYYCARYWPMDIWGQGTLVTVSSGGGGSGGGGSGGGGSEIVLTQSPGTLSLSPGERATLSCRGGQSVSSSYLAWYQQKPGQAPRLLMYDASIRATGIPDRFSGSGSGTDFTLTISRLEPEDFAVYYCQQYQSWPLTFGQGTKVEIKGLAVSTISSFFPPGYQIYIWAPLAGTCGVLLLSLVITLYCKRGRKKLLYIFKQPFMRPVQTTQEEDGCSCRFPEEEEGGCELRVKFSRSADAPAYQQGQNQLYNELNLGRREEYDVLDKRRGRDPEMGGKPRRKNPQEGLYNELQKDKMAEAYSEIGMKGERRRGKGHDGLYQGLSTATKDTYDALHMQALPPR | – | – | 68.6 | 2190 | –
6 | P5AC16-V1 (protein) EVQLLESGGGLVQPGGSLRLSCAASGFTFSSYAMNWVRQAPGKGLEWVSAISDFGGSTYYADSVKGRFTISRDNSKNTLYLQMNSLRAEDTAVYYCARYWPMDIWGQGTLVTVSSGGGGSGGGGSGGGGSEIVLTQSPGTLSLSPGERATLSCRASQSVSDLYLAWYQQKPGQAPRLLMYDASIRATGIPDRFSGSGSGTDFTLTISRLEPEDFAVYYCQQYQTWPLTFGQGTKVEIKGLAVSTISSFFPPGYQIYIWAPLAGTCGVLLLSLVITLYCKRGRKKLLYIFKQPFMRPVQTTQEEDGCSCRFPEEEEGGCELRVKFSRSADAPAYQQGQNQLYNELNLGRREEYDVLDKRRGRDPEMGGKPRRKNPQEGLYNELQKDKMAEAYSEIGMKGERRRGKGHDGLYQGLSTATKDTYDALHMQALPPR | – | – | 61.6 | 1860 | –
7 | PC1-V1 (protein) EVQLLESGGGLVQPGGSLRLSCAASGFTFSSYPMSWVRQAPGKGLEWVSAIGGSGGSTYYADSVKGRFTISRDNSKNTLYLQMNSLRAEDTAVYYCARYWPMDSWGQGTLVTVSSGGGGSGGGGSGGGGSEIVLTQSPGTLSLSPGERATLSCRASQSVSSTYLAWYQQKPGQAPRLLIYDASSRAPGIPDRFSGSGSGTDFTLTISRLEPEDFAVYYCQQYSTSPLTFGQGTKVEIKGLAVSTISSFFPPGYQIYIWAPLAGTCGVLLLSLVITLYCKRGRKKLLYIFKQPFMRPVQTTQEEDGCSCRFPEEEEGGCELRVKFSRSADAPAYQQGQNQLYNELNLGRREEYDVLDKRRGRDPEMGGKPRRKNPQEGLYNELQKDKMAEAYSEIGMKGERRRGKGHDGLYQGLSTATKDTYDALHMQALPPR | 75.6 | 2180 | – | – | –
